Measured values reported in patent publication US11419921B2, “Methods of treating neurological disorders” (EnClear Therapies, Inc., priority 2018, dated 2022).

B1: Trypsin: protease cleaving at the carboxyl side of lysine or arginine; in Table 21 also immobilized in-house on NHS-activated agarose resin (protein, UniProt P00760 24-246, looked up)
Serine protease 1: IVGGYTCGANTVPYQVSLNSGYHFCGGSLINSQWVVSAAHCYKSGIQVRLGEDNINVVEGNEQFISASKSIVHPSYNSNTLNNDIMLIKLKSAASLNSRVASISLPTSCASAGTQCLISGWGNTKSSGTSYPDVLKCLKAPILSDSSCKSAYPGQITSNMFCAGYLEGGKDSCQGDSGGPVVCSGKLQGIVSWGSGCAQKNKPGVYTKVCNYVSWIKQTIASN
B2: Clostripain: sulfhydryl protease cleaving at the C-terminus of arginine residues; in Table 23 also immobilized on agarose resin (protein)
chain: NKNQKVTIMYYCDADNNLEGSLLNDIEEMKTGYKDSPNLNLIALVDRSPRYSSDEKVLGEDFSDTRLYKIEHNKANRLDGKNEFPEISTTSKYEANMGDPEVLKKFIDYCKSNYEADKYVLIMANHGGGAREKSNPRLNRAICWDDSNLDKNGEADCLYMGEISDHLTEKQSVDLLAFDACLMGTAEVAYQYRPGNGGFSADTLVASSPVVWGPGFKYDKIFDRIKAGGGTNNEDDLTLGGKEQNFDPATITNEQLGALFVEEQRDSTHANGRYDQHLSFYDLKKAESVKRAIDNLAVNLSNENKKSEIEKLRGSGIHTDLMHYFDEYSEGEWVEYPYFDVYDLCEKINKSENFSSKTKDLASNAMNKLNEMIVYSFGDPSNNFKEGKNGLSIFLPNGDKKYSTYYTSTKIPHWTMQSWYNSIDTVKYGLNPYGKLSWCKDGQDPEINKVGNWFELLDSWFDKTNDVTGGVNHYQW

Tested on: (GR)10
Experiment: (GR)10 digestion with immobilized proteases (NHS-activated agarose resin) in PBS
Format: biochemical
Details: normalized
Experimental: Protease solutions were prepared at 2 mg/mL in sterile PBS with calcium, magnesium and 200 μL ([…]) were applied to 100 μL of pre-washed NHS-activated agarose resin in 0.8 mL centrifuge columns. Reactions were left 1.5 hour at room temperature with end-to-end mixing, after which resins were washed with 12 resin volumes of PBS. Unreacted sites were blocked with 500 μL of 1M ethanolamine for 15 minutes at room temperature and resins were further washed with 24 resin volumes. Resins were stored at 4 degrees in 500 μL of PBS containing 0.05% sodium azide as preservative.
110 μL of 50 μM (GR)10 dipeptide repeats prepared in PBS were added to each immobilized protease and incubated 5 minutes at room temperature with end-to-end mixing. Columns were spun down 1 minute at 1,000 Xg to recover digested GR dipeptides. Columns were washed with 110 μL of PBS to increase (GR)10 recovery. This procedure was repeated with 60 minutes digestion time. 100 μL of each samples were transferred to a new tube and 5 μL of 10% TFA followed by 300 μL of Dilution Solution were added. The reaction mixtures were analyzed by LC/MS to determine the concentration of GR repeats of different lengths.

[1] = resin wash from 60 min reaction

Molecule	(GR)1 (Immobilized - 5 min reaction) [µM]	(GR)2 (Immobilized - 5 min reaction) [µM]	(GR)3 (Immobilized - 5 min reaction) [µM]	(GR)4 (Immobilized - 5 min reaction) [µM]	(GR)5 (Immobilized - 5 min reaction) [µM]	(GR)6 (Immobilized - 5 min reaction) [µM]	(GR)8 (Immobilized - 5 min reaction) [µM]	(GR)10 (Immobilized - 5 min reaction) [µM]	(GR)1 (immobilized - 60 min reaction) [µM]	(GR)2 (immobilized - 60 min reaction) [µM]	(GR)3 (immobilized - 60 min reaction) [µM]	(GR)4 (immobilized - 60 min reaction) [µM]	(GR)5 (immobilized - 60 min reaction) [µM]	(GR)6 (immobilized - 60 min reaction) [µM]	(GR)8 (immobilized - 60 min reaction) [µM]	(GR)10 (immobilized - 60 min reaction) [µM]	(GR)1 (resin wash from 5 min reaction) [µM]	(GR)2 (resin wash from 5 min reaction) [µM]	(GR)3 (resin wash from 5 min reaction) [µM]	(GR)4 (resin wash from 5 min reaction) [µM]	further results
B1	308.8	0.0	0.0	0.0	0.0	0.0	0.0	0.0	321.8	0.0	0.0	0.0	0.0	0.0	0.0	0.0	140.2	0.0	0.0	0.0	(GR)5 (resin wash from 5 min reaction): 0.0 µM; (GR)6 (resin wash from 5 min reaction): 0.0 µM; (GR)8 (resin wash from 5 min reaction): 0.0 µM; (GR)10 (resin wash from 5 min reaction): 6.6 µM; (GR)1 [1]: 144.6 µM; (GR)2 [1]: 0.0 µM; (GR)3 [1]: 0.0 µM; (GR)4 [1]: 0.0 µM; (GR)5 [1]: 0.0 µM; (GR)6 [1]: 0.0 µM; (GR)8 [1]: 0.0 µM; (GR)10 [1]: 0.0 µM
B2	296.5	0.0	0.0	0.0	0.0	0.0	0.0	0.0	305.9	0.0	0.0	0.0	0.0	0.0	0.0	0.0	140.2	0.0	0.0	0.0	(GR)5 (resin wash from 5 min reaction): 0.0 µM; (GR)6 (resin wash from 5 min reaction): 0.0 µM; (GR)8 (resin wash from 5 min reaction): 0.0 µM; (GR)10 (resin wash from 5 min reaction): 0.0 µM; (GR)1 [1]: 155.8 µM; (GR)2 [1]: 0.0 µM; (GR)3 [1]: 0.0 µM; (GR)4 [1]: 0.0 µM; (GR)5 [1]: 0.0 µM; (GR)6 [1]: 0.0 µM; (GR)8 [1]: 0.0 µM; (GR)10 [1]: 0.0 µM
